Target: Flotillin A (FloA) tagged with hexa-histidine (floA-6xHis) (S. aureus Newman)
Test: pull-down; Ni-NTA (IMAC) affinity chromatography of S. aureus Newman membranes solubilised in 50 mM Tris HCl pH 8, 250 mM NaCl, 1% DDM, 4°C; FloA-His held, IsdF-3xFLAG in the 50 mM imidazole eluate detected by anti-FLAG blot; control strain with untagged FloA WT set to 1; called co-immunoprecipitation by the paper

Flotillin A (FloA) tagged with hexa-histidine (floA-6xHis) (S. aureus Newman), sequence (A6QHB6 whole entry): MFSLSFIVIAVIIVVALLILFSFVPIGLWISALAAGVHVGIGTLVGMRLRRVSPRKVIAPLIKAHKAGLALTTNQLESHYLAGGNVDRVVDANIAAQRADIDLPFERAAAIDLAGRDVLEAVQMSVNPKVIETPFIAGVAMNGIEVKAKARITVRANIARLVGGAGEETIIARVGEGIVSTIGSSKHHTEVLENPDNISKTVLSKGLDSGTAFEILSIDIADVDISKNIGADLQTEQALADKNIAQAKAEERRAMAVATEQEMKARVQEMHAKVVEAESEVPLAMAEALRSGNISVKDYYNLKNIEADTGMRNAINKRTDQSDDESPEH

## IsdF with a triple FLAG tag (pRB474:isdF-3xFLAG) (from UniProt Q2FHU7 1-322) (natural protein)
  fold IsdF-3xFLAG signal in the Ni-NTA eluate against the strain with untagged FloA WT (set to 1): 3 fold
